The subject of assay [1] is PKGIα (analogue-sensitive M438G), disulfide-activated. The assay is described as follows: Chemical genetic phosphoproteomic screen, disulfide-activated PKGIα M438G versus unactivated control. It is filed as biochemical, human PKGIα; substrates in rat heart homogenate. The conditions noted are these: for log2 fold changes: Group 2 (disulfide-activated) vs Group 3 (control). In a few lines:
(§1)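 Analogue-sensitive human PKGIα mutants (M438G, air-oxidized to disulfide dimer; C42S/M438G, cGMP-activated), expressed in 293-F cells, thiophosphorylate substrates in rat left-ventricle lysate (20 mg ml) using N6-alkylated ATPγS. Thiophosphopeptides are recovered by covalent capture and identified with sites by LC–MS/MS, each compared against an unactivated control.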

The test system of assay [2] is PKGIα (analogue-sensitive C42S/M438G), cGMP-activated. The assay is described as follows: Chemical genetic phosphoproteomic screen, cGMP-activated PKGIα C42S/M438G versus unactivated control. It is filed as biochemical, human PKGIα; substrates in rat heart homogenate. The conditions noted are these: for log2 fold changes: Group 1 (cGMP-activated) vs Group 3 (control). In a few lines: as §1

B1: Hdlbp pS74 (protein, UniProt Q9Z1A6 2-1268, looked up)
Vigilin: SSVAVLTQESFAEHRSGLVPQQIIVATLNSEEESDPPTYKDAFPPLPEKAACLESAQEPAGAWSNKIRPIKASVITQVFHVPLEERKYKDMNQFGEGEQAKICLEIMQRTGAHLELSLAKDQGLSIMVSGKLDAVMKARKDIVARLQTQASATVPIPKEHHRFVIGKNGEKLQDLELKTATKIQIPRPDDPSNQIKITGTKEGIEKARHEVLLISAEQDKRAVKRLEVEKAFHPFIAGPYNRLVGEIMQETGTRINIPPPSVNRTEIVFTGEKEQLAQAVARIKKIYEEKKKKTTTIAVEVKKSQHKYVIGPKGNSLQEILERTGVSVEIPPSDSISETVILRGEPEKLGQALTEVYAKANSFTVSSVSAPSWLHRFIIGKKGQNLAKITHQMPKVHIEFTEGEDKITLEGPTEDVNVAQEQIEGMVKDLINRMDYVEINIDHKFHRHLIGKSGANINRIKDQYKVSVRIPPDSEKSNLIRIEGDPQGVQQAKRELLELASRMENERTKDLIIEQRFHRTIIGQKGERIREIRDKFPEVIINFPDPAQKSEIVQLRGPKNEVEKCTKYMQKMVADLVENSYSISVPIFKQFHKNIIGKGGANIKKIREESNTKIDLPAENSNSETIVITGKRANCEAARSRILSIQKDLANIAEVEVSIPAKLHNSLIGTKGRLIRSIMEECGGVHIHFPVEGSGSDTVVIRGPSSDVEKAKKQLLHLAEEKQTKSFTVDIRAKPEYHKFLIGKGGGKIRKVRDSTGARIIFPAAEDKDQDLITIIGKEDAVREAQKELEALIQNLDNVVEDYMLVDPRHHRHFVIRRGQVLREIAEEYGGVMVSFPRSGTQSDKVTLKGAKDCVEAAKKRIQEIIEDLEAQVTLECAIPQKFHRSVMGPKGSRIQQITRDYNVQIKFPDREENPVHSVEPSIQENGDEAGEGREAKETDPGSPRRCDIIVISGRKEKCEAAKEALEALVPVTIEVEVPFDLHRYIIGQKGSGIRKMMDEFEVNIHVPAPELQSHTIAITGLAANLDRAKAGLLDRVKELQAEQEDRALRSFKLSVTVDPKYHPKIIGGKGAVITQIRLEHDVNIQFPDKDDGNQPQDQITITGYEKNTEAARDAILKIVGELEQMVSEDVPLDHRVHARIIGARGKAIRKIMDEFKVDIRFPQSGAPDPNCVTVTGLPENVEEAIDHILNLEEEYLADVVDSEALQVYMKPPAHEESKAPSKGFVVRDAPWTSNSSEKAPDMSSSEEIPTFGAQVAPKTLPWGPKR
modifications: phosphorylated at S74
As for B1, the log2 fold changes amounted to 0.4352 in assay [1] and 3.955 in assay [2].

B2: Hadhb pS198 (protein, UniProt Q60587 35-475, looked up)
Trifunctional enzyme subunit …: SAPAVQTKSKKTLAKPNLKNIVVVEGVRIPFLLSGTSYKDLMPHDLARAALSGLLYRTNIPKDVVDYIIFGTVIQEVKTSNVAREAALGAGFSDKTPAHTVTMACISSNQAMTTAVGLIASGQCDVVVAGGVELMSDVPIRHSRNMRKMMLDLNKAKTLAQRLSLLTKFRLNFLSPELPAVAEFSTNETMGHSADRLAAAFAVSRMEQDKYALRSHSLAKKAQDEGHLSDIVPFKVPGKDTVSKDNGIRPSSLEQMAKLKPAFIKPYGTVTAANSSFLTDGASAMLIMSEDRALAMGYKPKAYLRDFIYVSQDPKDQLLLGPTYATPKVLEKAGLTMNDIDAFEFHEAFSGQILANFKAMDSDWFAQNYMGRKTKVGAPPLEKFNIWGGSLSLGHPFGATGCRLVMAAANRLRKDGGQYALVAACAAGGQGHAMIVEAYPK
modifications: phosphorylated at S198
For B2, the log2 fold changes in assay [1] amounted to 0.04396; in assay [2] it was 3.435.

B3: Acadvl pT513 (protein, UniProt P45953 41-655, looked up)
Very long-chain specific …: ASEATQAVLEKPETLSSDASTREKPARAESKSFAVGMFKGQLTTDQVFPYPSVLNEGQTQFLKELVGPVARFFEEVNDPAKNDSLEKVEEDTLQGLKELGAFGLQVPSELGGLGLSNTQYARLAEIVGMHDLGVSVTLGAHQSIGFKGILLYGTKAQKEKYLPRVASGQALAAFCLTEPSSGSDVASIRSSAVPSPCGKYYTLNGSKIWISNGGLADIFTVFAKTPIKDAATGAVKEKITAFVVERSFGGVTHGLPEKKMGIKASNTSEVYFDGVKVPAENVLGEVGDGFKVAVNILNNGRFGMAATLAGTMKAIIAKAVDHATNRTQFGDKIHNFGVIQEKLARMAILQYVTESMAYMLSANMDQGFKDFQIEAAISKIFGSEAAWKVTDECIQIMGGMGFMKEPGVERVLRDIRIFRIFEGTNDILRLFVALQGCMDKGKELTGLGNALKNPLGNVGLLIGEASKQLRRRTGIGSGLSLSGIVHPELSRSGELAVQALEQFATVVEAKLMKHKKGIVNEQFLLQRLADGAIDLYAMVVVLSRASRSLSEGYPTAQHEKMLCDSWCIEAATRIRENMASLQSNPQQQELFRNFRSISKAMVENGGLVTSNPLRV
modifications: phosphorylated at T513
Consider B3, for which the log2 fold changes in assay [1] is on record as -0.899; in assay [2], 3.595.

B4: Plcg1 pS1233 (protein, UniProt P10686 2-1290, looked up)
1-phosphatidylinositol …: AGVGTPCANGCGPSAPSEAEVLHLCRSLEVGTVMTLFYSKKSQRPERKTFQVKLETRQITWSRGADKIEGSIDIREIKEIRPGKTSRDFDRYQEDPAFRPDQSHCFVILYGMEFRLKTLSLQATSEDEVNMWIKGLTWLMEDTLQAATPLQIERWLRKQFYSVDRNREDRISAKDLKNMLSQVNYRVPNMRFLRERLTDFEQRSGDITYGQFAQLYRSLMYSAQKTMDLPFLETNTLRTGERPELCQVSLSEFQQFLLEYQGELWAVDRLQVQEFMLSFLRDPLREIEEPYFFLDELVTFLFSKENSVWNSQLDAVCPETMNNPLSHYWISSSHNTYLTGDQFSSESSLEAYARCLRMGCRCIELDCWDGPDGMPVIYHGHTLTTKIKFSDVLHTIKEHAFVASEYPVILSIEDHCSIAQQRNMAQHFRKVLGDTLLTKPVDIAADGLPSPNQLKRKILIKHKKLAEGSAYEEVPTSVMYSENDISNSIKNGILYLEDPVNHEWYPHYFVLTSSKIYYSEETSSDQGNEDEEEPKEASGSTELHSSEKWFHGKLGAGRDGRHIAERLLTEYCIETGAPDGSFLVRESETFVGDYTLSFWRNGKVQHCRIHSRQDAGTPKFFLTDNLVFDSLYDLITHYQQVPLRCNEFEMRLSEPVPQTNAHESKEWYHASLTRAQAEHMLMRVPRDGAFLVRKRNEPNSYAISFRAEGKIKHCRVQQEGQTVMLGNSEFDSLVDLISYYEKHPLYRKMKLRYPINEEALEKIGTAEPDYGALYEGRNPGFYVEANPMPTFKCAVKALFDYKAQREDELTFTKSAIIQNVEKQDGGWWRGDYGGKKQLWFPSNYVEEMINPAILEPEREHLDENSPLGDLLRGVLDVPACQIAIRPEGKNNRLFVFSISMPSVAQWSLDVAADSQEELQDWVKKIREVAQTADARLTEGKMMERRKKIALELSELVVYCRPVPFDEEKIGTERACYRDMSSFPETKAEKYVNKAKGKKFLQYNRLQLSRIYPKGQRLDSSNYDPLPMWICGSQLVALNFQTPDKPMQMNQALFMAGGHCGYVLQPSTMRDEAFDPFDKSSLRGLEPCVICIEVLGARHLPKNGRGIVCPFVEIEVAGAEYDSTKQKTEFVVDNGLNPVWPAKPFHFQISNPEFAFLRFVVYEEDMFSDQNFLAQATFPVKGLKTGYRAVPLKNNYSEDLELASLLIKIDIFPAKENGDLSPFSGTSLRERASDASSQLFHVRAREGSFEARYQQPFEDFRISQEHLADHFDSRERRAPRRTRVNGDNRL
modifications: phosphorylated at S1233
Take B4: the “log2 fold change Disulfide vs Control” value in assay [1] (control = PKGIα C42S/M438G) is given as 1.819. For the same molecule, the “log2 fold change cGMP vs Control” value in assay [2] (control = PKGIα C42S/M438G) amounted to 4.5.

These data come from PMC5095173, “Disulfide-activated protein kinase G Iα regulates cardiac diastolic relaxation and fine-tunes the Frank–Starling response” (Nature Communications, 2016).
